Experimental data as given in the nanobody polyreactivity screen of Harvey et al. (2022).

Test: yeast display, Sf9 membrane polyspecificity reagent, FACS + sequencing; frameworks hold sequencing errors
Summary of the method: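 In a synthetic yeast display library (Saccharomyces cerevisiae BJ5465), nanobody expression was induced with galactose for 36–48 hours. FACS gates were set low and high (top ~1%) using anti-HA fluorescence for expression and streptavidin fluorescence for binding of the Sf9 membrane reagent. Each polyreactivity label is drawn from the gate of origin.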

Row | Sequence | polyreactivity (PSR sort gate)
1 | QVQLVESGGGLVQAGGSLRLSCAASGFTFWDYDLGWSRQATGKERELVAAISDNDGSTDYADSVKGRITISRDNVKNTVFLQMNRLKPEESAVYYCNAEIEMPSKEGDYWGLGTQVTVSS | low polyreactivity
2 | QVQLVESGGGLVQAGGSLRLSCAASGFTFWDYTMGWYRQAPAKERELVAAINRGGNTYYADSVKGRFTISRDNAKNTVYLQMNSLKPEDSADYYCAARRRSRQYRYDYWGQGTQVTVSS | high polyreactivity
3 | QVQLVESGGGLVQAGGSLRLSCAASGFTFWGNAMGWYRQAPGKERELVAAISRSGGRTYYADSVKGRFTISRDNAKNTVYLQMNSLKPEDTAVYYCAAGSSHHFDYEGGYWGQGTQVTVSS | low polyreactivity
4 | QVQLVESGGGLVQAGGSLRLSCAASGFTFWKYAMGWYRQAPGKEREFVPAISWSGGNTYYADSVKGRFTISRDNAKNTVYLQMNSLKPEDTADYYCARRGRYYLYTDDYDYWGQGTQVTVSS | high polyreactivity
5 | QVQLVESGGGLVQAGGSLRLSCAASGFTFWKYSMGWYRQAPGKERELVATITSSGDNTYYADSVKGRFTISRDNAKNTVYLQMNSLKPEDTAVYYCAADNGYHYNFDYWGQGTQVTVSS | low polyreactivity
6 | QVQLVESGGGLVQAGGSLRLSCAASGFTFWLYAMGWYRQAPGKERELVAAIDWDGGTYYADSVKGRFTISRDNAKNTVYLQMNSLKPEDTAVYYCAARYRYYYTRYDYWGQGTQVTVSS | high polyreactivity
7 | QVQLVESGGGLVQAGGSLRLSCAASGFTFWLYSMGWDRQAPGKEREFVAAISTSGGSTYADSVKGRFTISRDNAKNTVYLLMNSLKPEDTAVYYCAGVYTYPLGYYHYTYDYWGQGTQVTVSS | low polyreactivity
8 | QVQLVESGGGLVQAGGSLRLSCAASGFTFWLYSMGWYRQAPGKERELVAAISWSGGSTYYADSVKGRFTISRDNAKNTVYFQMNSMKPEDPAVYYCAAVKYVRCAEFYYWGQGTQVTVSS | high polyreactivity
9 | QVQLVESGGGLVQAGGSLRLSCAASGFTFWLYTMGWYRQAPGKERELVAAISWSGGSTYYADSVKGRFTISRDTAKNTVYLQMNSLKPEDTAVYYCNALYVGYYDSMGYWGQGTQVTVSS | high polyreactivity
10 | QVQLVESGGGLVQAGGSLRLSCAASGFTFWQYAMGWNRQAPGKERELVAAITWDVGSTYYSDSVKGRFTISRDNAKNTVYLQLNSLKPEDTAVYYCAKLIGGTYYEDDYWGQGSQVTVSS | low polyreactivity
11 | QVQLVESGGGLVQAGGSLRLSCAASGFTFWQYAMGWYRQAPGKERELGAAITWDGGSTYYADSVKGRFTISRDTAKNTVYLQMNSLKPEDTAVYYRAKLFGGTYYEYDYWGQGTQVTVSS | low polyreactivity
12 | QVQLVESGGGLVQAGGSLRLSCAASGFTFWRNTMGWYRQAPGKERELVAGISGSGGSTYYADSVKGRFTISRDNAKNTVYLQMNSLKPEDTAVYYCAVRGGYTWPTYNYWGQGTQVTVSS | high polyreactivity
13 | QVQLVESGGGLVQAGGSLRLSCAASGFTFWRNVMGWYRQAPGKERELVAVISRGGSTNYADSVKGRFTISRDNAKNTVYLKMNSLIPEDTAVYYFAKYARGPSKVDYWGQGTQVTVSS | high polyreactivity
14 | QVQLVESGGGLVQAGGSLRLSCAASGFTFWSYAMGWYRQAPGKERELVAAISSSGDSTYYADSVKGRFTISRDNAKNTVYLQMNSLKPEDTAVYYCAAEYQYLSVEVTDIWYLTKYDYWGQGTQVTVSS | low polyreactivity
15 | QVQLVESGGGLVQAGGSLRLSCAASGFTFWVYAMGWYRQAPGKEREFVASISWTGDTTYYADSVKGRFTISRDNAKNTVYLQMNSLKPEDTAVYYCAGDTILGYDYWGQGTQVTVSS | low polyreactivity
16 | QVQLVESGGGLVQAGGSLRLSCAASGFTFWVYAMGWYRQAPGKERELVAAISARGGSTYYADSVKVRFTISRDNAKNTVYLQMNRLKPEDTAVYYCAAEPSGKRSKFYYWGQGTQVTVSS | high polyreactivity
17 | QVQLVESGGGLVQAGGSLRLSCAASGFTFWYYAMGWYRQAPGKERELVAAITYTGDRTYYADSVKGRFTISRDNAKNTVYLQMNSLKREDTAVYYCDVYLGIRSGTANDYWGQGTQVTVSS | high polyreactivity
18 | QVQLVESGGGLVQAGGSLRLSCAASGFTFYANAMGWYRQAPGKERELVAAITQGGDSTYFADSVKGRFTISRDNAKKSVYLQLNSLKREDTAVYYCNTDLLCEYDYWGQGTQVTVSS | low polyreactivity
19 | QVQLVESGGGLVQAGGSLRLSCAASGFTFYAYAMGWYRQAPGKERELVAAISSRGGRTYYADSVKGRFTISRDNAKNTVYLQMNSLKPEDTAVYYCIVPYYSFRELSSYYWGQGTQVTVSS | high polyreactivity
20 | QVQLVESGGGLVQAGGSLRLSCAASGFTFYDNAMGWYRQAPGKERELVAAISWSGGSTYADSVKGRFTISRDNAKNTVYVQMNSLKPEDTAVYYCNADAWLASGYRYDYWGQGTQVTVSS | low polyreactivity
21 | QVQLVESGGGLVQAGGSLRLSCAASGFTFYDYAMGLYRQAPGKERELVAGISRDGGTTYYSDSVKGRFTISRDNAKNTVYLQMNSLKPEDTAVYYCAVDFLDWYQDYYITYDYWGQGSQVTVSS | low polyreactivity

Row | Sequence | polyreactivity (PSR sort gate)
22 | QVQLVESGGGLVQAGGSLRLSCAASGFTFYDYAMVWYRQAPGKERELVAGITSTGRTYYADSVKGRFTISRDNAKNTVYLQMNSLKPEDTAVYYCNARTLPNYYRRYDYWGQGTEVTVSS | high polyreactivity
23 | QVQLVESGGGLVQAGGSLRLSCAASGFTFYGYAMGWYRQAPGKEREFVAAISSRGGRTYYADSVKGRFTISRDNAKNTVYLQMNSLKPEDTAVYYCARRRATGRFSLDYWGQGTQVTVSS | high polyreactivity
24 | QVQLVESGGGLVQAGGSLRLSCAASGFTFYGYAMGWYRQAPGKERELVAAINSGAITNYADSVKGRFTISRDNAKNTVYLQMNSLKPEDTAVYYCAASYRRLTGVGADEYWGQGTQVTVSS | high polyreactivity
25 | QVQLVESGGGLVQAGGSLRLSCAASGFTFYGYAMGWYRQAPGKERELVAAISSSGTSTYYADSVKGRFTISRDNAKNTVYLQMNSLKPEDTAVYYCAALVRGAYGYGYWGQGTQVTVSS | high polyreactivity
26 | QVQLVESGGGLVQAGGSLRLSCAASGFTFYGYAMGWYRQAPGKERELVASISWSGGTTYYADSVKGRFTISRDNAKNTVYLQMNSLKPEDTAVYYCNAVRYRYGVFPYYYWGQGTQVTVSS | high polyreactivity
27 | QVQLVESGGGLVQAGGSLRLSCAASGFTFYGYVMGWYRQAPGKERDLVAVISRSGDRTYYADSVKGRFTISRDNAKNTVYFQMNSLKPEDTAVYYCAARVYLLGWWTGNGYWGQGTQVTVSS | high polyreactivity
28 | QVQLVESGGGLVQAGGSLRLSCAASGFTFYHYAMGWYRQAPGKERELVATISKRGGSTYYADSVKGRFTISRDNAKNTVYLQMNSLKPEDTAVYYCAAKIYWSSLKMDYWGQGTQVTVSS | high polyreactivity
29 | QVQLVESGGGLVQAGGSLRLSCAASGFTFYINALGWYRLAHGKERELVAAITWRSVRTYYADSVKGRFTISRDNAKNTVYLQMNSRKPEDTEVYYCAAASAYRHGEYDYWGQGTQLTVSS | low polyreactivity
30 | QVQLVESGGGLVQAGGSLRLSCAASGFTFYIYAMGWYRQAPGKERELVAAISSGGGRTYYADSVKGRFTISRDNAKNTVYLQMNSLKPEDTAVYYCAARGRAFSYNNYGSDYWGQGTQVTVSS | high polyreactivity
31 | QVQLVESGGGLVQAGGSLRLSCAASGFTFYIYVMGWYRQARGKERELVAAITWSGGRTYYADSVKGRFTISRDYAKNTVYLQMNSLKPEDTAVYYCAASYPGLSYHKYEYWGQGTQVTVSS | high polyreactivity
32 | QVQLVESGGGLVQAGGSLRLSCAASGFTFYKNTMGWYRQAHGTERELVAAISSSGSSTYYADSVKGRFTISRDNAKNTVYLQMNSLKPEDTAVYYCAAGRFAYHDDYWGQGTQVTVSS | high polyreactivity
33 | QVQLVESGGGLVQAGGSLRLSCAASGFTFYKNTMGWYRQAPGKERELVAAISSSGSSTYYADSVKGRFTISRDKAKNTVYLQMNSLKPEDTAVYYCAAGRFAYHDDYWGQGTQVTVSS | high polyreactivity
34 | QVQLVESGGGLVQAGGSLRLSCAASGFTFYKYVMGWYRQAPGKERELVAAITTSGGSTYYADSVKGRFTISRDNAKNTVYLQMNSLKPEDTAVYYCNALARWWAYYDYGYWGQGTQVTVSS | low polyreactivity
35 | QVQLVESGGGLVQAGGSLRLSCAASGFTFYLNVMGWYRQAPGKERELVARISRSGGTTYYADSVKGRFTISRDNAKNTVYLQMNSLKPEDTAVYYCAARRYGVPPTYDYWGQGTQVTVSS | high polyreactivity
36 | QVQLVESGGGLVQAGGSLRLSCAASGFTFYLYAMGWYRQAPGKERELVAAITWSGGRTYYADSVKGRFTISRDNAKNTVYLQMNSLKPEDTAVYYCAAVVRKQLSAPSDYWGQGTQVTVSS | high polyreactivity
37 | QVQLVESGGGLVQAGGSLRLSCAASGFTFYNNAMGWYRQAPGKERELVAVITSNGGRTYYADSVKGRFTISRDNAKITVYLQMNSLKPEDTAVYYCAADYWGLGTQVTVSS | low polyreactivity
38 | QVQLVESGGGLVQAGGSLRLSCAASGFTFYNYAMGWYRQAPGKERELVAAISRSGRTYYADSVKGRFTISRDNAKNTVYLQMNSLKPEDTAVYYCAAGHGGDPGSGYWGQGTQVTVSS | high polyreactivity
39 | QVQLVESGGGLVQAGGSLRLSCAASGFTFYNYAMGWYRQAPGKERELVAAITSSGGRTYYADSVKGRFTISRDNAKNTVYLQMNSLKPEDTAVYYCAATGFYLRGEYYYCGQGTQVTVSS | low polyreactivity
40 | QVQLVESGGGLVQAGGSLRLSCAASGFTFYPYALGRYRQAPRKEREFVAAISNGDSTHYADSVKGRFTISRDNAKNTVYLQMNSLKPEDTAVYYCNAYTRYPFYFVTSKYDYWGQGTQVTVSS | low polyreactivity
41 | QVQLVESGGGLVQAGGSLRLSCAASGFTFYQYAMGWYRQAPGKEREFVAAISSSGSSTYYADSVKGRFTISRDNAKNTVYLQMNSLKPEDTEVYYCNAYFRNWRYSPGGYWGQGTQVTVSS | high polyreactivity
